Changes are numbered by the printed parent chain.
B1: ADI-14533 (antibody, V domains shown)
VH: QVQLVQSGAEVKKPGSSVIISCKASGGTFRNYGFTWVRQAPGQGLEWLGGIIPMFETVRYAQKFQGRVTITADENTNTAFLAVSSLRSEDTGVYFCARDLQTGIMSSVRSEYRGFMDPWGQGTLVTVSS
VL: QSVLTQPPSVSGAPRQRVTISCSGSSSNIGTNAVNWYQQLPGKSPKVLIYYDELVPSGVSDRFSGSRSGTSASLAISGLRSEDEAYYYCAAWDDSLNGWVFGGGTQLTVL
B2: ADI-14540 (antibody, V domains shown)
VH: QVQLVESGGGVVQPGRSLRLSCAASGFTFTDYAMHWVRQAPGKGLQWVALISYNGRIQYYADSVKGRFTISRDDSKNTLYLQMNSLRAGDTAVYYCARDGDLVAVPAAIGFDSWGQGTLVTVSS
VL: DIQVTQSPDSLAVSLGERATINCKSSQSVLYTSNNKNYLAWYQQKSRQPPKLLIYWASTRESGVPERFSGSGSGTDFTLTISSLQAEDVAVYYCQQYSSPPYTFGQGTKVEIK
B3: ADI-14541 (antibody, V domains shown)
VH: EVQLVESGGGLVRPGGSLRLSCAASGFAFSSYSLHWVRQAPGRGLEWVASISAGSSFTDYAASVRGRFTISRNIANSLYLQMNRLRAEDTAVYYCARVIGDGTILGVVF
VL: QSVLTQPPSVSGAPGQRVTISCTGGRSNIGAGYDVHWYQQLPGTAPKLLIYGNINRPSGVPDRFSGSKSGTSASLAITGLLAEDEADYYCQSYDSSLSVIFGGGTKLTVL
B4: ADI-14542 (antibody, V domains shown)
VH: QVQLVQSGAEVKKPGESLKISCKGSGYVFSSYWVAWVRQMPGKGLEWMGIIYPHDSDTRYSPAFQGQVTISADKSINTAYLQWSSLKASDTAMYYCTIILIPAPIRAPDGFDIWGQGTTVTVSS
VL: NFMLTQPHSVSESPGKTVTISCTGSGGTIASNYVQWYQQRPGSVPTTVIYENNERPSGVPDRFSGSIDRSSNSASLTISGLKTEDEADYYCQSYDSSYHVVFGGGTKVTVL
B5: ADI-14543 (antibody, V domains shown)
VH: QVQLVQSGAEVKKPGSSVKVSCKASGDTFSSYAISWVRQAPGQGLEWMGGVLPMLGTANYAQRFRGRVTLTADGSTNTAYMEMSSLRLDDTAVYYCARVAGLGNSYGRYPDLWGQGTLVTVSS
VL: DIVMTQSPSSLSASVGDRVTITCRASQGISSSLAWYQQKPGKAPELLIYAASSLHSGVPSRFRGSGSGTDFTLTISSVQPEDFATYYCQQANSFPYTFGQGTKLEIK
B6: ADI-14544 (antibody, V domains shown)
VH: QVQLVQSGAEVKKPGESLKISCKGAGFGSTNSWIGWVRQMPGKGLEWMGVIFPGDSDTKYSPTFQGQVTISVDKSINTAYLQWSSLKASDTAIYYCARMLASVGLSNFDAWGQGTLVTVSS
VL: QPVLTQPPSVSLAPGKTATITCGGNNIGGKSVHWYQQKPGQAPVLVIDYDSDRPSGIPERFSGSNSGNTATLTINRVEAGDEADYYCQVWDSISDHVLFGGGTKLTVL
B7: ADI-14545 (antibody, V domains shown)
VH: EVQLVESGGGLVKPGGSLRLSCAASGFTFSNAWMSWVRQAPGKGLEWVGRVKSKSKGGTTHYAEAVKGRFTISRDDSKNTLYLQMQSLKTEDTAVYYCTSHAYNSDWFVTTDYYYYMDVWGKGTTVTVSS
VL: DIVLTQSPSSLSASVGDRVTFTCRASQSISNYLNWYQQKPGKAPKVLIYGASNLLSGVPSRFIGSGSGTDFTLTINSLQPEDFATYYCQQCYSAPITFGQGTRLEIK
B8: ADI-14548 (antibody, V domains shown)
VH: EVQLVESGGGLVQPGGSLRLSCAASGFSFSTSWMSWVRQAPGKGLEWLANIKEDGSKKIYVDSVKGRFSISRDNAKNSLYLQMTSLRAEDTAVYYCARDVWGWELVGWLDPWGQGTLVTVSS
VL: SYELTQPPSVSVAPGKTASITCGGSNIGSRSVHWYQQKPGQAPVLVVYEDHDRPSGIPERFSGSNSGNTATLTISRVEAGDEADYYCQVWDSSRDHVVFGGGTKVTVL
B9: ADI-14440 (antibody, V domains shown)
VH: QVQLVQSGAEVKKPGSSVKVSCKASGGTINNVAISWLRQAPGQGLEWLGGNIPGFGKVRYSQQFETRLTLTADVSSDTAYMVLTSLRSEDTAVYYCAIIDPQLCTRASCFWVNWLDPWGQGTTVTVSS
VL: DIVMTQSPGTLSVSPGESAALSCGASESILSDSLAWYQHKPGQAPRLLIYGASSRAAGIPDRFSGSGSGTDFTLTISRLEPEDFAVYFCQQFGALPITFGQGTRLEIK
notes: full-length IgG (yeast-expressed); also called Antibody Number 3; Ab# 3
B10: ADI-14466 (antibody, V domains shown)
VH: QVQLVQSGAEAKKPGEPLRISCKGSGYTFSSYWISWVRQRPGERLEWMGRIDPSDSYAYSSPSFQGHVTFSADKSSNTAFLQWSSLQASDTAIYYCARHKENYDFWDFWGQGTMVTVSS
VL: ETTLTQSPDSLAVSLGERATINCRSSQPILFNPINKLSLAWYQLKPGQPPKLLISWASTREPGVPDRFNGSGSGTVFTLTISSLQPEDVAVYVCQQYFTSTFFGPGTKVEIK
notes: full-length IgG (yeast-expressed); also called Antibody Number 29; Ab# 29
B11: ADI-14468 (antibody, V domains shown)
VH: QVQLVQSGPTLVRPTQTLTLTCTFSGFSLSTRGVGVGWVRQSPGKAPEFLVLAHWDDDKIYSPSLRRRLSVTKDVSKNQVVLALTNVDPVDTGTYFCVKSDLYDRGGYYLYYFDHWGQGTLVTVSS
VL: DIRMTQSPSSLSASVGDRVTITCRASQTIASYVNWYLQRPGEAPKLLIYAASNLHSGAPPSLIGRGSGTDFTLTINTLQPEHFGTYFCQQTFSSPYTFGQGTKVEIK
notes: full-length IgG (yeast-expressed); also called Antibody Number 31; Ab# 31
B12: ADI-14469 (antibody, V domains shown)
VH: QVQLVESGPTLVKPTQTLTLTCTFSGFSLTTRGVGVGWVRQPPGKALEFLGLTHWDDDKIYSPSLRRRLTITKDTSKNQVVLALANVDPVDTATYFCVKSDLYDRGGYYLYYFDYWGQGTLVTVSS
VL: B11 VL with D1E, R3V, M4L, A30P, A50G, S56T, S61T, L62F, T69A, F87Y
notes: full-length IgG (yeast-expressed); also called Antibody Number 32; Ab# 32
B13: ADI-14470 (antibody, V domains shown)
VH: QVTLKESGPALVKPTETLTLTCTFSGFSLSTKRLSVSWIRQPPGKALEWLARIDWDDDKSYSTSLRTRLTIAKDTSKNQVVLTMTNMGPADTATYFCVRSSVYASNAYYLYYFDSWGQGTLVTVSS
VL: DIRMTQSPSSLSASVGDRVTITCRASQSIATYLNWYQHKPGKAPTLLIYAASILHSGVPPRFSGRASGTDFTLTISSLQPEDFATYYCQQAYSSPYTFGQGTKVDIK
notes: full-length IgG (yeast-expressed); also called Antibody Number 33; Ab# 33
B14: ADI-14475 (antibody, V domains shown)
VH: QVQLVQSGPALVKPTQTLTLTCTFSGFSLTTARMCVSWIRQPPGKALEWLARIDWDDDKSYSTSLKTRLTIAKDTSKNQVVLTMTNMGPADTATYYCVRTPIYASGGYYLSYFDSWGQGTLVTVSS
VL: DIVMTQSPSSLSASVGDSVTITCRASQTIASYVNWYQHKPGQAPNLLIYAASILHSGVPSRFRGGGSGTDFTLTINSLQPEDFATYYCQQSYSTPYTFGQGTKVDIK
notes: full-length IgG (yeast-expressed); also called Antibody Number 37; Ab# 37
B15: ADI-14476 (antibody, V domains shown)
VH: QVQLVESGPTLVKPTQTLSLTCTFSGFSLTTRGVGVGWIRQPPGKALEWLGFTYWDGDDRYSPSLRNRVSIAKDTSKNQVVLTLTNMDPVDTATYFCVHSDRYDRGGYYLYFFDYWGPGTLVTVSS
VL: DIRVTQSPSSLSASVGDRVSISCRASQTIASYVNWYQQRPGKAPQLLIFAASHLQTGVPSRFSGRGSGTDFTLTITSLQPEDFATYYCQQSYTSPYTFGQGTKVEIK
notes: full-length IgG (yeast-expressed); also called Antibody Number 38; Ab# 38
B16: ADI-14477 (antibody, V domains shown)
VH: EVQLVESGPTLVKPTQTLTLTCSLSGFSLTTRGVGVGWIRQPPGKAPECLGFVYWDDDNRYSPSLRGRLTISKDTSKNQVVLTLTNMDPLDTATYYCVHSDLYDRGGYYLFYFDDWGQGTLVTVSS
VL: DIQVTQSPSSLSASVGDRVTITCRASQPIASYLNWYQQKPGQAPKLLIYAASMLQSGAPSKFSGRGSGTDFTLTITTLQPEDFATYYCQQSYTFPYTFGQGTKVEIK
notes: full-length IgG (yeast-expressed); also called Antibody Number 39; Ab# 39
B17: ADI-14485 (antibody, V domains shown)
VH: EVQLVESGAEVKRPGSSVKVSCKVVGGSFSNYAISWVRQAPGQGPEYLGGIIPAFRTAKYAKKFQDRLTITADESTSTAYMEMRGLTSDDTGLYYCARPEGDFGDLKWLRSPFDYWGQGTLVTVSS
VL: EIVLTQSPATLSVSPGQRVTLSCRASQGVSINLAWYQQKPGQPPRLLIYGASTRATDIPARFSGSGSGTDFTLTISSLQSEDFAVYYCQQYDDWPPQLTFGPGTKLEIK
notes: full-length IgG (yeast-expressed); also called Antibody Number 46; Ab# 46

Tests used:
[1] = target: RSV F protein of subtype B (18537) on recombinant mKate-RSV (Respiratory syncytial virus subtype B …, UniProt P13843 26-574); test: cell-based or functional assay
[2] = target: RSV F protein of subtype A (strain A2) on recombinant mKate-RSV (Respiratory syncytial virus subtype A …, UniProt P03420 26-574); test: cell-based or functional assay
[3] = target: RSV F protein of recombinant mKate-RSV, subtype A (strain A2) (Respiratory syncytial virus subtype A …, UniProt P03420 26-574); test: cell-based or functional assay
[4] = target: RSV F protein of recombinant mKate-RSV, subtype B (18537) (Respiratory syncytial virus subtype B …, UniProt P13843 26-574); test: cell-based or functional assay
[5] = target: T1, RSV F ectodomain stabilized in the postfusion conformation (F ΔFP), subtype A (Respiratory syncytial virus subtype A, UniProt P03420 26-109; P03420 147-524); test: BLI, IgG on AHQ sensor, 100 nM antigen
T1 construct: extracellular domain; trimer; furin-cleaved; also called Postfusion subtype A

[6] = target: T2, RSV F ectodomain stabilized in the postfusion conformation (F ΔFP), subtype B (Respiratory syncytial virus subtype B, UniProt P13843 26-109; P13843 147-524); test: BLI, IgG on AHQ sensor, 100 nM antigen
T2 construct: extracellular domain; trimer; also called Postfusion subtype B; postF subtype B

| Binder | Neut IC50 (µg/ml) subtype B [1] [µg/mL] | Neut IC50 (µg/ml) subtype A [2] [µg/mL] | Neut IC50 subtype A [3] [µg/mL] | Neut IC50 subtype B [4] [µg/mL] | Kd [5] [nM] | Kd [6] [nM] |
| --- | --- | --- | --- | --- | --- | --- |
| B1 | 0.442 | > 10 | – | – | – | – |
| B2 | > 10 | > 10 | – | – | – | – |
| B3 | 0.106 | 0.023 | – | – | – | – |
| B4 | 4.3 | 0.008 | – | – | – | – |
| B5 | > 10 | > 10 | – | – | – | – |
| B6 | > 10 | > 10 | – | – | – | – |
| B7 | 0.073 | 0.036 | – | – | – | – |
| B8 | 0.094 | 0.034 | – | – | – | – |
| B9 | – | – | > 10 | 4.18 | 1.45 | 2.39 |
| B10 | – | – | 0.144 | 0.263 | 0.247 | 0.169 |
| B11 | – | – | 0.241 | 2.41 | 0.297 | 0.241 |
| B12 | – | – | 0.05 | 0.013 | 0.301 | 2.9 |
| B13 | – | – | 0.226 | 0.473 | 0.358 | 0.314 |
| B14 | – | – | 0.391 | 0.522 | 0.299 | 0.242 |
| B15 | – | – | 0.929 | 2.19 | 0.827 | 9.12 |
| B16 | – | – | > 10 | > 10 | 0.361 | 1.22 |
| B17 | – | – | > 10 | 2.81 | 1.52 | 0.642 |
